Experimental data: article PMC9482650, “Quantitative fragmentomics allow affinity mapping of interactomes” (Nature Communications, 2022)

T1: HTRA3, P83110
T1 sequence (P83110 354-453, limits assumed, looked up): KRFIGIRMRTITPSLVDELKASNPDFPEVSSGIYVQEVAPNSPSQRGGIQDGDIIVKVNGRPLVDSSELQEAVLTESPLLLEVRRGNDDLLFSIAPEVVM

T2: TX1BP3, O14907
T2 sequence (O14907 10-122, limits assumed, looked up): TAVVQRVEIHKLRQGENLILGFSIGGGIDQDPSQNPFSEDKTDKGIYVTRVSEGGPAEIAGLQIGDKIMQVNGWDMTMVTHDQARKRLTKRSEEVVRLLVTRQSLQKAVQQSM

T3: DFNB31_2, Q9P202
T3 sequence (Q9P202 274-371, limits assumed, looked up): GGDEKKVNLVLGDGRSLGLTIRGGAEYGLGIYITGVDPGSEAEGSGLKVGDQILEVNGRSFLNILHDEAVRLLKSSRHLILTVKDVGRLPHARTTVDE

T4: SYNJ2BP, P57105
T4 sequence (P57105 8-110, limits assumed, looked up): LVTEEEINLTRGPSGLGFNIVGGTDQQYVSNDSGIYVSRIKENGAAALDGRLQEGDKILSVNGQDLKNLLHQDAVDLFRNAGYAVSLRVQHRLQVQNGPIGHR

T5: LIN7A, O14910
T5 sequence (O14910 103-200, limits assumed, looked up): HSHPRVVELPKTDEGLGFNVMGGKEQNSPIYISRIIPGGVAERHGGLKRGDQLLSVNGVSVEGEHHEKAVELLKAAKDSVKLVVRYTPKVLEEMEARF

T6: ARHGAP21, Q5T5U3
T6 sequence (Q5T5U3 45-169, limits assumed, looked up): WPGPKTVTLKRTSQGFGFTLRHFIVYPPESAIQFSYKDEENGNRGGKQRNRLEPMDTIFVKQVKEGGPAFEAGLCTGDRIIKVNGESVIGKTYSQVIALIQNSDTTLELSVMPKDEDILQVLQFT

T7: GRIP1_7, Q9Y3R0
T7 sequence (Q9Y3R0 999-1096, limits assumed, looked up): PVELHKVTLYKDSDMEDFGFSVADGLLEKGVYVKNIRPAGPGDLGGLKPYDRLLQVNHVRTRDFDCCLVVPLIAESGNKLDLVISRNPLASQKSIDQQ

T8: PDZD2_2, O15018
T8 sequence (O15018 329-429, limits assumed, looked up): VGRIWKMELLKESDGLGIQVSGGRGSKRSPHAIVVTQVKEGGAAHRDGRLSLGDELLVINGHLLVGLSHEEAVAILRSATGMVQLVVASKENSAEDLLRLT


Tests used:
Experiment in all cases: holdup assay
Set-up in all cases: key: below the threshold = too weak to quantify, mostly under pKd 3.1 to 4
Conditions in all cases: plain residues with an end cap or a label only (N-terminal biotin on a linker: ado-ado)
LNX1_2, Q8TBB1 = biological target: LNX1_2, Q8TBB1
LNX1_2, Q8TBB1, sequence (Q8TBB1 371-470): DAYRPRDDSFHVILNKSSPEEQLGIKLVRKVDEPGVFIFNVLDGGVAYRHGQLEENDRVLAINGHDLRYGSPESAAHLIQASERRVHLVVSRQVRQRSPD

HTRA3, P83110 = biological target: T1, HTRA3, P83110
Inadl_5, Q8NI35 = biological target: Inadl_5, Q8NI35
Inadl_5, Q8NI35, sequence (Q8NI35 673-780): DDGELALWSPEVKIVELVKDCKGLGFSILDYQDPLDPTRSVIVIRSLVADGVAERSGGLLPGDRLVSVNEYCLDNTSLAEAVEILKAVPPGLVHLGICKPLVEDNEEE

Inadl_8, Q8NI35 = biological target: Inadl_8, Q8NI35
Inadl_8, Q8NI35, sequence (Q8NI35 1425-1530): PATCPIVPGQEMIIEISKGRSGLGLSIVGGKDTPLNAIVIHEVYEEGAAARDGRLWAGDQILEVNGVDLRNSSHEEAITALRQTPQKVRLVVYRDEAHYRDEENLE

GRID2IP_2, A4D2P6 = biological target: GRID2IP_2, A4D2P6
GRID2IP_2, A4D2P6, sequence (A4D2P6 272-370): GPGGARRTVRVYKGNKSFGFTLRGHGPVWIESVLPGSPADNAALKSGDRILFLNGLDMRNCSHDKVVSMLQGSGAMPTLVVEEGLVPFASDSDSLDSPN

PICK1, Q9NRD5 = biological target: PICK1, Q9NRD5
PICK1, Q9NRD5, sequence (Q9NRD5 17-115): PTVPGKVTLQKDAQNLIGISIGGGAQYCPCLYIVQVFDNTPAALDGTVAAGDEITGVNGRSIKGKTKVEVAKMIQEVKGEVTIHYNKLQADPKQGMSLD

GRIP2_3, Q9C0E4 = biological target: GRIP2_3, Q9C0E4
GRIP2_3, Q9C0E4, sequence (Q9C0E4 238-339): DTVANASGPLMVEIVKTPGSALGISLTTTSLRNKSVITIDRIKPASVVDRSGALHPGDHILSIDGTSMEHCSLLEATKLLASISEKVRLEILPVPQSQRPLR

DLG4_3, P78352 = biological target: DLG4_3, P78352
DLG4_3, P78352, sequence (P78352 306-403): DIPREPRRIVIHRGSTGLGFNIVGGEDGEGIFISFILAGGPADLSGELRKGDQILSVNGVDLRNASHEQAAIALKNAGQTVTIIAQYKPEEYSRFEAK

Inadl_2, Q8NI35 = biological target: Inadl_2, Q8NI35
Inadl_2, Q8NI35, sequence (Q8NI35 238-335): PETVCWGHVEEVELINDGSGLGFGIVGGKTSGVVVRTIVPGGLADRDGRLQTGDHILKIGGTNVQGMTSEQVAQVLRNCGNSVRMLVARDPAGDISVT

TJP1_2, Q07157 = biological target: TJP1_2, Q07157
TJP1_2, Q07157, sequence (Q07157 181-274): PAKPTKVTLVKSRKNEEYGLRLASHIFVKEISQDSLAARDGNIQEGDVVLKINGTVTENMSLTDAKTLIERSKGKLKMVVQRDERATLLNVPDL

MAGI2_3, Q86UL8 = biological target: MAGI2_3, Q86UL8
MAGI2_3, Q86UL8, sequence (Q86UL8 600-682): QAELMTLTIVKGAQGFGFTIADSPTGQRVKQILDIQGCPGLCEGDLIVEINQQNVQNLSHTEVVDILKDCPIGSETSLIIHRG

TX1BP3, O14907 = biological target: T2, TX1BP3, O14907
DLG2_2, Q15700 = biological target: DLG2_2, Q15700
DLG2_2, Q15700, sequence (Q15700 189-283): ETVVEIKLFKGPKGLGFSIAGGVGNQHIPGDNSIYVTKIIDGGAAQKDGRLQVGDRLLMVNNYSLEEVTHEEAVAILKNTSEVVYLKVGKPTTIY

DFNB31_2, Q9P202 = biological target: T3, DFNB31_2, Q9P202
MAGI3_2, Q5TCQ9 = biological target: MAGI3_2, Q5TCQ9
MAGI3_2, Q5TCQ9, sequence (Q5TCQ9 398-503): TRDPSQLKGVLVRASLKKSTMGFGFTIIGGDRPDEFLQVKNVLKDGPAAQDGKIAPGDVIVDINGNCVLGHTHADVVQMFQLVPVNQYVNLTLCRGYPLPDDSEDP

SYNJ2BP, P57105 = biological target: T4, SYNJ2BP, P57105
Inadl_10, Q8NI35 = biological target: Inadl_10, Q8NI35
Inadl_10, Q8NI35, sequence (Q8NI35 1673-1763): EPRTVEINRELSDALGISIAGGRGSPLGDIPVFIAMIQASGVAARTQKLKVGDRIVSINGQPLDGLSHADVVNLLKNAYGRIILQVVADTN

IL16_3, Q14005 = biological target: IL16_3, Q14005
IL16_3, Q14005, sequence (Q14005 1107-1207): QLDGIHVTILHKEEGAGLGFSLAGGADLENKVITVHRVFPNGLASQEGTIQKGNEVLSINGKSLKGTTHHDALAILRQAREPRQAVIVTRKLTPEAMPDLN

FRMPD4, Q14CM0 = biological target: FRMPD4, Q14CM0
FRMPD4, Q14CM0, sequence (Q14CM0 67-160): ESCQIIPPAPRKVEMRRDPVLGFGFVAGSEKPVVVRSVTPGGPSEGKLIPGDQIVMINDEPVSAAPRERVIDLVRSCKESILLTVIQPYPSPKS

HTRA1, Q92743 = biological target: HTRA1, Q92743
HTRA1, Q92743, sequence (Q92743 360-477): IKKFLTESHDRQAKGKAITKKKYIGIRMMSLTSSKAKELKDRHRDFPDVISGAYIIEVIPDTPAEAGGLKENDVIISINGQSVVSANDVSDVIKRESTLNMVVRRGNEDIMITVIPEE

MAGI2_5, Q86UL8 = biological target: MAGI2_5, Q86UL8
MAGI2_5, Q86UL8, sequence (Q86UL8 915-1017): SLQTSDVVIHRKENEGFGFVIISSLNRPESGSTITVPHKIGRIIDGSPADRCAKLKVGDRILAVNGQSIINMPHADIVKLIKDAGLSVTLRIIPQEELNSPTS

LIN7A, O14910 = biological target: T5, LIN7A, O14910
ARHGAP21, Q5T5U3 = biological target: T6, ARHGAP21, Q5T5U3
GRIP1_7, Q9Y3R0 = biological target: T7, GRIP1_7, Q9Y3R0
FRMPD2_1, Q68DX3 = biological target: FRMPD2_1, Q68DX3
FRMPD2_1, Q68DX3, sequence (Q68DX3 770-861): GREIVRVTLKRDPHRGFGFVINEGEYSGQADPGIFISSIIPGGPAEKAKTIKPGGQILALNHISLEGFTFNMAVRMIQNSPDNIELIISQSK

PDZD2_2, O15018 = biological target: T8, PDZD2_2, O15018
GORASP1, Q9BQQ3 = biological target: GORASP1, Q9BQQ3
GORASP1, Q9BQQ3, sequence (Q9BQQ3 1-208): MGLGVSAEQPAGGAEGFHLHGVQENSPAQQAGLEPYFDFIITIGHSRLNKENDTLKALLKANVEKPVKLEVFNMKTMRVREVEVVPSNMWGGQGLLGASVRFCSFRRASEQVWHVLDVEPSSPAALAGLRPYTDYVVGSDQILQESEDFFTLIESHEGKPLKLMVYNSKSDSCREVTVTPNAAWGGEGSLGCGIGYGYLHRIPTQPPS

SCRIB_2, Q14160 = biological target: SCRIB_2, Q14160
SCRIB_2, Q14160, sequence (Q14160 857-960): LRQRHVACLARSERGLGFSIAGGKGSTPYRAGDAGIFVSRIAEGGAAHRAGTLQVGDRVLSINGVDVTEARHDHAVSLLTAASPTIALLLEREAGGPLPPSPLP

DLG5_1, Q8TDM6 = biological target: DLG5_1, Q8TDM6
DLG5_1, Q8TDM6, sequence (Q8TDM6 617-713): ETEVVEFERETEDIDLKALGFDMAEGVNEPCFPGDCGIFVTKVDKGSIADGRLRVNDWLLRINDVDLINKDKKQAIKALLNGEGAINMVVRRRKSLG

Binder	pKd (LNX1_2, Q8TBB1)	pKd (HTRA3, P83110)	pKd (Inadl_5, Q8NI35)	pKd (Inadl_8, Q8NI35)	pKd (GRID2IP_2, A4D2P6)	pKd (PICK1, Q9NRD5)	pKd (GRIP2_3, Q9C0E4)	pKd (DLG4_3, P78352)	pKd (Inadl_2, Q8NI35)	pKd (TJP1_2, Q07157)	pKd (MAGI2_3, Q86UL8)	pKd (TX1BP3, O14907)	pKd (DLG2_2, Q15700)	pKd (DFNB31_2, Q9P202)	pKd (MAGI3_2, Q5TCQ9)	pKd (SYNJ2BP, P57105)	pKd (Inadl_10, Q8NI35)	pKd (IL16_3, Q14005)	pKd (FRMPD4, Q14CM0)	pKd (HTRA1, Q92743)	further results
RRLQGTSSMV [GOLT1A, Q6ZVE7]	below the threshold	3.64	below the threshold	4.08	3.93	4.03	below the threshold	below the threshold	below the threshold	below the threshold	3.77	3.9	4.39	below the threshold	5.02	4.72	below the threshold	below the threshold	below the threshold	4	pKd (MAGI2_5, Q86UL8): 4; pKd (LIN7A, O14910): below the threshold; pKd (ARHGAP21, Q5T5U3): below the threshold; pKd (GRIP1_7, Q9Y3R0): below the threshold; pKd (FRMPD2_1, Q68DX3): below the threshold; pKd (PDZD2_2, O15018): 5.16; pKd (GORASP1, Q9BQQ3): 3.67; pKd (SCRIB_2, Q14160): 3.57; pKd (DLG5_1, Q8TDM6): below the threshold
REKKFFCTIL [GNG4, P50150]	below the threshold	3.78	below the threshold	4.52	5.07	below the threshold	below the threshold	4.17	below the threshold	below the threshold	below the threshold	5.29	3.97	below the threshold	4.87	4.27	4.26	below the threshold	4.23	5.48	pKd (MAGI2_5, Q86UL8): 4.86; pKd (LIN7A, O14910): 3.6; pKd (ARHGAP21, Q5T5U3): 3.93; pKd (GRIP1_7, Q9Y3R0): below the threshold; pKd (FRMPD2_1, Q68DX3): 3.88; pKd (PDZD2_2, O15018): 4.06; pKd (GORASP1, Q9BQQ3): 5.07; pKd (SCRIB_2, Q14160): below the threshold; pKd (DLG5_1, Q8TDM6): below the threshold
TGPWKNETTV [ADGRA1, Q86SQ6]	3.62	below the threshold	below the threshold	below the threshold	below the threshold	below the threshold	below the threshold	4.61	below the threshold	below the threshold	3.94	4.47	5.1	below the threshold	5.29	5.13	below the threshold	below the threshold	below the threshold	4.26	pKd (MAGI2_5, Q86UL8): 4.02; pKd (LIN7A, O14910): 3.86; pKd (ARHGAP21, Q5T5U3): below the threshold; pKd (GRIP1_7, Q9Y3R0): below the threshold; pKd (FRMPD2_1, Q68DX3): below the threshold; pKd (PDZD2_2, O15018): 4.02; pKd (GORASP1, Q9BQQ3): below the threshold; pKd (SCRIB_2, Q14160): 4.25; pKd (DLG5_1, Q8TDM6): below the threshold

More lines, main results first:

pKd (LNX1_2, Q8TBB1)	pKd (HTRA3, P83110)	pKd (Inadl_5, Q8NI35)	pKd (Inadl_8, Q8NI35)	pKd (GRID2IP_2, A4D2P6)	pKd (PICK1, Q9NRD5)	pKd (GRIP2_3, Q9C0E4)	pKd (DLG4_3, P78352)	pKd (Inadl_2, Q8NI35)	pKd (TJP1_2, Q07157)	pKd (MAGI2_3, Q86UL8)	pKd (TX1BP3, O14907)	pKd (DLG2_2, Q15700)	pKd (DFNB31_2, Q9P202)	pKd (MAGI3_2, Q5TCQ9)	pKd (SYNJ2BP, P57105)	pKd (Inadl_10, Q8NI35)	pKd (IL16_3, Q14005)	pKd (FRMPD4, Q14CM0)	pKd (HTRA1, Q92743)	Binder	further results
below the threshold	4.24	below the threshold	3.66	3.99	below the threshold	below the threshold	below the threshold	below the threshold	below the threshold	below the threshold	below the threshold	below the threshold	below the threshold	below the threshold	3.67	below the threshold	below the threshold	3.54	3.69	ALPLPQSSTC [IGF1R, P08069]	pKd (MAGI2_5, Q86UL8): below the threshold; pKd (LIN7A, O14910): below the threshold; pKd (ARHGAP21, Q5T5U3): 3.76; pKd (GRIP1_7, Q9Y3R0): below the threshold; pKd (FRMPD2_1, Q68DX3): below the threshold; pKd (PDZD2_2, O15018): 4.46; pKd (GORASP1, Q9BQQ3): below the threshold; pKd (SCRIB_2, Q14160): below the threshold; pKd (DLG5_1, Q8TDM6): below the threshold
3.83	5.86	below the threshold	4.55	below the threshold	4.06	below the threshold	below the threshold	below the threshold	3.6	below the threshold	below the threshold	below the threshold	below the threshold	below the threshold	3.73	below the threshold	below the threshold	below the threshold	4.72	RDFDYIADWC [PKN2, Q16513]	pKd (MAGI2_5, Q86UL8): 3.95; pKd (LIN7A, O14910): below the threshold; pKd (ARHGAP21, Q5T5U3): 3.71; pKd (GRIP1_7, Q9Y3R0): below the threshold; pKd (FRMPD2_1, Q68DX3): below the threshold; pKd (PDZD2_2, O15018): 5.54; pKd (GORASP1, Q9BQQ3): below the threshold; pKd (SCRIB_2, Q14160): below the threshold; pKd (DLG5_1, Q8TDM6): below the threshold
